Measured values as given in paper PMC2880831.

Molecular target: EGR1 (UniProt P18146 1-543)
Experiment: EMSA

Sequence of EGR1 (P18146 whole entry): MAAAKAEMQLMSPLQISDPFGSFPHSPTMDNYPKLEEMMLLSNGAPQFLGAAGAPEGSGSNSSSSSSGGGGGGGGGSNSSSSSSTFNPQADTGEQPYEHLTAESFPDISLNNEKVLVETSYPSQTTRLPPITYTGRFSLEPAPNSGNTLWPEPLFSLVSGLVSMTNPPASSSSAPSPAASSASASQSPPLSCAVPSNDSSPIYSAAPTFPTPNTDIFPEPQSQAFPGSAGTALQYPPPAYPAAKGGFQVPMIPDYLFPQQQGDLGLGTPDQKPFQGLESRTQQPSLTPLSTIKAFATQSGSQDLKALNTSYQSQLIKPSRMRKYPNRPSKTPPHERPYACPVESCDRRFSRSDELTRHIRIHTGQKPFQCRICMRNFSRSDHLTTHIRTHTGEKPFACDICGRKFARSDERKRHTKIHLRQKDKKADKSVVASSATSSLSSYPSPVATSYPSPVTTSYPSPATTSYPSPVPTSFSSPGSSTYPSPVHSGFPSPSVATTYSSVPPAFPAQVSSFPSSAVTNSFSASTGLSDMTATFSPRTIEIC

B1: FAP promoter WT -225~-205 (dsDNA)
DNA 1: CAAGAACGCCCCCAAAATCT
DNA 2: AGATTTTGGGGGCGTTCTTG
- binding result: binds
